Experimental data from patent publication US20230012273A1 (Boehringer Ingelheim, published 2023).

Experiments:
[1] = biological target: T1, full-length human SIRPγ (NP_061026.2) on cells (human, UniProt Q9P1W8 29-387); experiment: flow cytometry, Expi-CHO cells expressing full-length wild-type human SIRPγ
T1 construct: also called CHO-hSIRPγ; γ WT
Protocol: […] These cells are blocked with donkey IgG and incubated on ice with increasing concentrations of antibodies for 60 minutes, washed and stained with AF647-conjugated donkey F(ab′)₂ anti-human IgG antibodies. Stained cells are washed, fixed, and analyzed by flow cytometry. Median fluorescent intensity is determined and used as a measure of antibody binding.

[2] = biological target: T2, full-length human SIRPαV2 (CAA71403.1) on cells (human, UniProt P78324 31-504); experiment: flow cytometry, competition with CD47 tetramer, CHO-K1 cells; * inhibition plateaus at <100%
T2 construct: one molecule for CHO-K1 and Expi-CHO transfectants (CAA71403.1) and for endogenous V2 on THP-1 cells and on CD14+ monocytes of V2/V2 donors; also called CHO-hSIRPαV2; αV2 WT
Protocol: Cells are washed, fixed, and analyzed by flow cytometry. Median fluorescent intensity is determined and used as a measure of CD47 binding.

[3] = biological target: T3, full-length cyno SIRPα (XP_015313155) on CHO-K1 cells, clone P3HD10 (cynomolgus monkey); experiment: flow cytometry, CHO-K1 cells
T3 chain: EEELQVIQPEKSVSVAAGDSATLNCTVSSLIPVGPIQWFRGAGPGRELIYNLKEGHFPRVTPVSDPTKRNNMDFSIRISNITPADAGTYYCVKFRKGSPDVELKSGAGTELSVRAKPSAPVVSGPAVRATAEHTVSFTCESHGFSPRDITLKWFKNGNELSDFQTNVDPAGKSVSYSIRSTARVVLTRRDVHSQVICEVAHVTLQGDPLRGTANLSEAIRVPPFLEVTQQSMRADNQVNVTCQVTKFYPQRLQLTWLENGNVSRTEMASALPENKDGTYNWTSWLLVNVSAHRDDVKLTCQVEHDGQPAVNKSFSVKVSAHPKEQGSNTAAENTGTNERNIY
Protocol: (§1) Antibody binding to cells expressing cynomolgus (cyno) SIRPα was evaluated by flow cytometry. CHO-K1 cells expressing full-length cyno SIRPα; derived from protein sequence accession numbers (A) EGM-02252; (B) XP_015313155; or (C) NP_001271679, are blocked with donkey IgG and incubated on ice with increasing concentrations of antibodies for 60 minutes, washed and stained with AF647-conjugated donkey F(ab′)₂ anti-human IgG secondary reagent. Cells are washed, fixed, and analyzed by flow cytometry. Median fluorescent intensity is determined and used as a measure of antibody binding.

[4] = biological target: T4, full-length cyno SIRPα (NP_001271679) on CHO-K1 cells, clone HC6 (cynomolgus monkey, UniProt A0A2K5VYQ9); experiment: flow cytometry, CHO-K1 cells
T4 construct: whole, on cells
T4 sequence: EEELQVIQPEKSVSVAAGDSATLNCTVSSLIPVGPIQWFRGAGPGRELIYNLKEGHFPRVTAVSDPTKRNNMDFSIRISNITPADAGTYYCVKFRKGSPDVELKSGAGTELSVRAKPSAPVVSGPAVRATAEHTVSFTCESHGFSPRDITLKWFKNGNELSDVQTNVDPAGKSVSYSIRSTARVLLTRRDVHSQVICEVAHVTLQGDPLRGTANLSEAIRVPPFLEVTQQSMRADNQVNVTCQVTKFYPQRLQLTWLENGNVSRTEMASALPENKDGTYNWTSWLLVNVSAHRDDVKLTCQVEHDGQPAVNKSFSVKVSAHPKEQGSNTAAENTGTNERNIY
Protocol: as §1

[5] = biological target: T5, full-length human SIRPβL (NP_001129316.1) on cells (human, UniProt Q5TFQ8 30-398); experiment: flow cytometry, U937 SIRPα KO cells
T5 construct: on U937 SIRPα KO cells and Expi-CHO cells; also called βL WT; SIRPβ1v3
Outline: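 SIRPα-knockout U937 cells expressing SIRPβ1 or SIRPβL were blocked with donkey IgG, then incubated on ice 60 minutes with increasing antibody concentrations. Bound antibody detected with AF647 anti-human IgG F(ab′)₂; median fluorescence intensity taken as binding.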

[6] = biological target: T1, full-length human SIRPγ (NP_061026.2) …; experiment: flow cytometry, Expi-CHO cells
Outline: (§2)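 Expi-CHO cells lentivirally transduced with wild-type or point-mutant full-length human SIRPγ, sorted to matched expression, donkey IgG-blocked, then incubated with increasing antibody concentrations 60 min on ice. Detection with AF647 donkey F(ab′)₂ anti-human IgG; fixed cells read by flow cytometry, median fluorescence intensity as binding.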

[7] = biological target: T6, full-length human SIRPγ E→D on Expi-CHO cells (human, UniProt Q9P1W8 29-387); experiment: flow cytometry, Expi-CHO cells
T6 construct: the entry already carries the change (PENV to PDNV)
Outline: as §2

[8] = biological target: T1, full-length human SIRPγ (NP_061026.2) …; experiment: flow cytometry, primary CD3+ T cells
Protocol: Antibody binding to primary human T cells expressing endogenous SIRPγ is evaluated by flow cytometry. Human peripheral blood mononuclear cells (PBMCs) are blocked with donkey IgG and incubated on ice with increasing concentrations of antibody for 60 minutes, washed and stained with AF647-conjugated donkey F(ab′)₂ anti-human IgG secondary reagent. […] Cells are washed, fixed, and analyzed by flow cytometry. Median fluorescent intensity of CD3+ gated population is determined and used as a measure of antibody binding.

[9] = biological target: T1, full-length human SIRPγ (NP_061026.2) …; experiment: flow cytometry, CHO cells
[10] = biological target: T7, full-length human SIRPβ1 D→H on Expi-CHO cells (human, UniProt O00241 30-398); experiment: flow cytometry, Expi-CHO cells
T7 construct: the entry already carries the change (PDDV to PDHV)
Protocol: These cells are blocked with donkey IgG and incubated on ice with increasing concentrations of antibodies for 60 minutes, washed and stained with AF647-conjugated donkey F(ab′)₂ anti-human IgG antibodies. Stained cells are washed, fixed, and analyzed by flow cytometry. Median fluorescent intensity is determined and used as a measure of antibody binding.

| Binder | binding result [1] | fold weaker EC50 than on clone H3A9 [3] | fold weaker EC50 than on clone H3A9 [4] | binding result [5] | also measured |
| --- | --- | --- | --- | --- | --- |
| Antibody A10 (antibody, human IgG1, kappa, L234A L235A) heavy: not shown light: DIQMTQSPSSLSASVGDRVTITCRASQDINNYLAWFQQKPGKAPKSLIYTASSLHSGVPSKFSGSGSGTDFTLTISSLQPEDFATYYCQQYVSYPYTFGQGTKLEIKRTVAAPSVFIFPPSDEQLKSGTASVVCLLNNFYPREAKVQWKVDNALQSGNSQESVTEQDSKDSTYSLSSTLTLSKADYEKHKVYACEVTHQGLSSPVTKSFNRGEC [Antibody A10, listing 1 of 2 here] | no binding (tested: about 67 nM) |  |  |  |  |
| Antibody E (antibody, human IgG1, kappa, L234A L235A) heavy: not shown light: DIVMTQSPLSLPVTPGEPASISCKSSQSLLYSNGYNYLDWYLQRPGQSPQLLIYLGSNRASGVPDRFSGSGSGTDFTLKISRVEAEDVGVFYCMQALQTPLTFGGGTKVEIKRTVAAPSVFIFPPSDEQLKSGTASVVCLLNNFYPREAKVQWKVDNALQSGNSQESVTEQDSKDSTYSLSSTLTLSKADYEKHKVYACEVTHQGLSSPVTKSFNRGEC |  |  |  |  | IC50 [2]: 700 pM |
| Antibody E22 (antibody, human IgG1, kappa, L234A L235A, V domains shown) VH: QVQLQESGPGLVKPSETLSLTCTVSGGSIRDYYWSWIRQPPGKGLEWIGFIYYNGRTFYQSSLKSRVTISLDTSKNQFSLKMTSVTAADTAVYYCARVRAYSGIGLDGTDVWGQGTTVTVSS VL: DIVMTQSPLSLPVTPGEPASISCRSSQSLLYSTGYTYLDWYLQRPGQSPQLLIYGGSSRASGVPDRFSGSGSGTDFTLKISRVEAEDVGVFYCGQALQTPLTFGQGTKVEIKR | no binding (tested: about 67 nM) |  |  |  |  |
| Antibody A (antibody, human IgG1, kappa, L234A L235A) heavy: not shown light: DIQMTQSPSSLSASVGDRVTITCRASQDINNYLAWFQQKPGKAPKSLIYTASSLHSGVPSKFSGSGSGTDFTLTISSLQPEDFATYYCQQYVSYPYTFGQGTKLEIKRTVAAPSVFIFPPSDEQLKSGTASVVCLLNNFYPREAKVQWKVDNALQSGNSQESVTEQDSKDSTYSLSSTLTLSKADYEKHKVYACEVTHQGLSSPVTKSFNRGEC |  | ≤ 5 fold | ≤ 5 fold | no binding |  |
| Antibody A10 (antibody, human IgG1, kappa, L234A L235A) heavy: not shown light: DIQMTQSPSSLSASVGDRVTITCRASQDINNYLAWFQQKPGKAPKSLIYTASSLHSGVPSKFSGSGSGTDFTLTISSLQPEDFATYYCQQYVSYPYTFGQGTKLEIKRTVAAPSVFIFPPSDEQLKSGTASVVCLLNNFYPREAKVQWKVDNALQSGNSQESVTEQDSKDSTYSLSSTLTLSKADYEKHKVYACEVTHQGLSSPVTKSFNRGEC [Antibody A10, listing 2 of 2 here] |  | ≤ 5 fold | ≤ 5 fold | no binding |  |
| Anti-SIRPα antibody KWAR23 (antibody, V domains shown) VH: EVQLQQSGAELVKPGASVKLSCTASGFNIKDYYIHWVQQRTEQGLEWIGRIDPEDGETKYAPKFQDKATITADTSSNTAYLHLSSLTSEDTAVYYCARWGAYWGQGTLVTVSS VL: QIVLTQSPAIMSASPGEKVTLTCSASSSVSSSYLYWYQQKPGSSPKLWIYSTSNLASGVPARFSGSGSGTSYSLTISSMEAEDAASYFCHQWSSYPRTFGAGTKLELK |  |  |  |  | EC50 [6]: 113 pM; EC50 [7]: 300 pM; EC50 [8]: 30 pM; EC50 [9]: 2700 pM; EC50 [10]: 10 pM |
